Laboratory results taken from US20250215403A1, “Compositions and Methods for Cardiac Tissue Regeneration” (Temple University - Of The Commonwealth System Of Higher …, priority 2022, published 2025).

Columns and labels:
cardiomyocytes (CM) = experiment: Mouse MI model: immunostaining of heart sections for CM cell cycle markers (ki67, pH3, BrdU, Aurora B); type: in vivo; conditions: seven days post-MI
Experimental: All surgical and experimental procedures with mice were performed in accordance with protocols approved by Institutional Animal Care and Use Committees at Temple University Animal Care and Use Committee (IACUC). C57BL6 or CM-specific MADM mice (8-12-weeks-old) were anesthetized with isoflurane. MI was induced by permanent ligation of the LAD, as previously described (Garikipati, V. N. S., et al., 2019, Nature Communications, 10:4317). Briefly, the left thoracic region was shaved and sterilized. After intubation, the heart was exposed through a left thoracotomy. A suture was placed to ligate the LAD. The thoracotomy and skin were sutured closed in layers. Excess air was removed from the thoracic cavity, and the mouse was removed from ventilation when normal breathing was established. In order to determine the effect of modRNA on cardiovascular outcome after MI, modRNAs (100 μg/heart) were injected into the infarct zone immediately after LAD ligation (Magadum A., et al., Circulation. 2020, 141 (15): 1249-1265). For examination of heart histology, hearts were collected at the end of each study, quickly washed in PBS, weighed, and fixed in 4% PFA for cryo-sectioning and immunostainings. In all experiments, the surgeon was blinded to the treatment group. For assessment of heart histology, hearts were collected at the end of each study. The hearts were excised, briefly washed in PBS, perfused with perfusion buffer, weighed and fixed in 4% PFA at 4° C. overnight. The heart blocks were transverse sectioned at 6-8 μm using cryostat. The heart sections were further processed for histological evaluation using immunostaining (see below) or histological scar staining using Masson's trichrome staining kit (Sigma) according to standard procedures. Measuring the ratio of heart weight to body weight was done using a scale. This ratio was calculated as the heart tissue weight relative to the mouse total body weight in grams (g).
Mice were injected with AAV9-GFP or AAV9-YAP1-shRNA (GeneCopoeia) through retro-orbital injection 7 days before LAD. A total of 5×10^11 viral genomes (50 μl total volume delivered) was injected per mouse. The level of YAP1 inhibition was determined at the mRNA level by qPCR 14 days post injection.
Mice hearts were harvested, weighed, and fixed in 4% PFA/PBS overnight on shaker and then washed with PBS for 1 hour and incubated in 30% sucrose/PBS at 4° C. for 12-18 hours. Hearts were then fixed in OCT and frozen at −80° C. (Magadum A., et al., Circulation. 2020, 141 (15): 1249-1265). Transverse heart sections (6-8 μm) were made using a cryostat. Frozen sections were rehydrated in PBS for 5-10 min followed by permeabilization with PBS with 0.1% Triton™ X100 (PBST) for 7-8 min. Heart sections were then treated with 3% H2O2 for 5 min and washed (3×5 min) with PBST. The samples were then blocked with PBS+10% Donkey normal serum+0.1% Triton™ X100 (PBSST) for 1 hour at room temperature. Primary antibodies (see complete list of primary antibodies used for this Example in Table 2 below) diluted in PBST were added and incubated overnight at 4° C. Slides were washed with PBST (3×5 min) followed by incubation with a secondary antibody (Invitrogen, 1:200) diluted in PBST for 90-120 min at room temperature. The samples were further washed with PBST (3×5 min) and stained with DAPI or Hoechst 33342 (1 μg/ml) diluted in PBST for 7 min. After being washed with PBST (3×7 min) and tap water (1×5 min) slides were mounted with mounting medium (VECTASHIELD®) for imaging (Magadum A., et al., Circulation. 2020, 141 (15): 1249-1265). Stained slides were stored at 4° C. All staining was performed on 4-8 hearts/group, with 2-3 sections/heart. For immunostaining with wheat germ agglutinin (WGA) for CM size quantification, images were captured at 40× magnification, and ImageJ was used to determine the area of each cell. […]

[1] = HPLC measurements of oxidative stress (ROS, GSH/GSSG, NADPH, NADH) in heart post-MI; type: in vivo, mouse
Experimental: ROS production in heart tissue was measured using HPLC for dihydroethidium (DHE) oxidation products (Magadum A., et al., Circulation. 2020, 141 (15): 1249-1265). Immediately after harvesting hearts, a 20 mg segment of heart tissue was cut into small pieces and incubated with DHE (100 μM) in PBS containing DTPA (100 μM) at 37° C. for 30 min. The sample was washed with PBS/DTPA, extracted with acetonitrile (500 μl) and briefly sonicated (3× 30 sec, 8W). After centrifugation (13,000×g, 10 min at 4° C.), the supernatant was collected and dried under vacuum, and pellets stored at −20° C. in the dark until analysis. Samples were resuspended in 120 μl PBS-DTPA and injected into the HPLC system. The superoxide-specific DHE oxidation product 2-hydroxyethidine (EOH) was quantified by comparison of the peak signal between samples and standard solutions under identical chromatographic conditions, and expressed as EOH/mg tissue.
The level of glutathione (GSH) in heart tissue was measured by an HPLC method with electrochemical detection, as previously described (Magadum A., et al., Circulation. 2020, 141 (15): 1249-1265). Heart samples were homogenized in a 100 mM acetate buffer (pH 5.4, containing 10 μM DTPA). A small aliquot was used to quantify total protein. The remaining sample was deproteinized with 10% TCA, centrifuged at 10,000×g for 5 min at 4° C., the supernatant filtered (0.45 μm) and stored at −80° C. Samples were injected onto a C18 column (Phenomenex C18, 3 μm, 150×4.6 mm) and eluted at 0.5 ml/min using an isocratic mobile phase solution (25 mM NaH2PO4, 1 mM 1-octane sulfonic acid, 6% acetonitrile, pH 2.6, H2O with phosphoric acid). GSH levels were quantified by comparison to standards subjected to the same HPLC conditions. Glutathione disulfide (GSSG) levels were indirectly determined by its enzymatic reduction with glutathione reductase (0.6 U/ml plus 0.2 mg/ml NADPH) for 30 min. The reaction was stopped by adding 5% TCA on ice. The GSH levels were normalized by the amount of protein. GSSG quantification was achieved by the difference between total reduced GSSG to total GSH in each sample.

B1: PSAT1 modRNA: modified mRNA with N1-methylpseudouridine, transcribed in vitro, encoding phosphoserine aminotransferase 1 (ORF SEQ ID NO: 1, RNA SEQ ID NO: 2) (nucleic acid)
chain: AUGGAAGCCACCAAGCAAGUGGUUAACUUUGGGCCCGGGCCUGCCAAGCUGCCACACUCGGUAUUGUUGGAGAUCCAGAAGCAGCUACUAGACUACAGAGGACUCGGCAUCAGUGUGCUCGAAAUGAGUCACAGGUCAUCAGAUUUUGCCAAGAUUAUUGGCAAUACAGAGAAUCUUGUGAGGGAAUUGCUAGCUGUUCCCAACAACUACAAGGUGAUCUUUGUACAAGGAGGUGGGUCUGGCCAGUUCAGUGCUGUCCCCUUAAAUCUGAUUGGCCUGAAAGCUGGAAGGAGUGCUGACUACGUGGUGACCGGAGCUUGGUCAGCUAAGGCUGCGGAAGAAGCCAAGAAGUUUGGAACGGUGAACAUUGUCCACCCUAAACUUGGAAGUUACACAAAAAUUCCAGACCCAAGCACCUGGAACCUCAACCCGGACGCCUCCUAUGUAUACUUCUGUGCAAACGAGACUGUGCACGGGGUGGAGUUUGACUUCGUACCUGACGUCAAGGGAGCGGUGCUGGUCUGUGACAUGUCCUCAAACUUCUUAUCCAGGCCGGUGGAUGUUUCCAAGUUUGGUGUGAUUUUCGCUGGUGCUCAGAAGAAUGUUGGCUCUGCCGGGGUGACGGUGGUGAUUGUCCGGGAUGACCUGCUGGGGUUCUCGCUCAGAGAGUGCCCAUCAGUCCUUGACUACAAAGUGCAGGCUGGGAACAACUCUUUGUAUAACACACCUCCGUGCUUCAGCAUCUACGUCAUGGGCAUGGUCCUGGAAUGGAUCAAGAACAACGGCGGGGCCGCAGCCAUGGAGAAGCUCAGCUCCAUCAAAUCCCAAAUGAUUUAUGAGAUCAUUGAUAAUUCUCAAGGAUUUUAUGUAUGCCCAGUGGAGCGCCAGAAUAGAAGCAGGAUGAACAUCCCAUUUCGCAUUGGCAACGCCAAAGGAGACGAAGCUUUGGAAAAGCGGUUUCUUGACAAGGCGGUAGAACUCAACAUGAUCUCCUUGAAGGGGCACAGGUCAGUGGGAGGCAUUCGUGCCUCUCUGUAUAACGCUGUCACAACCGAAGACGUUGAGAAGCUGGCGGCCUUCAUGAAGAAUUUCUUGGAGAUGCAUCAGCUGUGA
modifications: N1-methylpseudouridine
In the case of B1, the “CM cell cycle inhibition under YAP1 inhibition” value (cardiomyocytes (CM); PSAT1 modRNA plus AAV9-YAP1-shRNA, compared to controls, significantly lower rate than PSAT1 modRNA alone) is reported as “partially reversed”, the “CMs positive for Aurora B” value (cardiomyocytes (CM); compared to Luc modRNA) is reported as “significant increase” and the “CMs positive for BrdU (DNA synthesis)” value (cardiomyocytes (CM); compared to Luc modRNA) is reported as “significant increase”. The “CMs positive for pH3” value (cardiomyocytes (CM); compared to Luc modRNA) was “significant increase”, the GSH/GSSG ratio ([1]; heart post-MI) was “significantly increased” and the “levels of superoxide and other ROS” value ([1]; heart two days post-MI, DHE probe) was “reduced”. The NADH level ([1]; two days post-MI) was “increased” and the NADPH level ([1]; two days post-MI) was “increased”.
